The labels stand for the following.
B1: HDV Ribozyme (parent)
chain: GGCCGGCAUGGUCCCAGCCUCCUCGCUGGCGCCGGCUGGGCAACAUUCCGAGGGGACCGUCCCCUCGGUAAUGGCGAAUGGGACCCA

The variants in this data set derive from B1. As to the kind of experiment: self-cleavage, relative activity (ratio to wild type); higher = more cleavage; co-transcriptional.
With GGCCGGCAUGCUCCCAGCCUCCUCGCUGGCGCCGGCUGGGCAACAUUCCGAGGGGACCGUCCCCUCGGUAAUGGCGACUGGGACCCA, the self-cleavage came to 0.0369.
The figure for GGCCGGCAUGCUCCCAGCCUCCUCGCUGGCGCCGGCUGGGCAACAUUCCGAGGGGACCGUCCCCUCGGUUAUGGCGAAUGGGACCCA is 0.399.
The figure for GGCCGGCAUGCUCCCAGCCUCCUCGCUGGCGCCGGCUGGGCAACAUUCCGAGGGGCCCGUCCCCUCGGUAAUGGCGAAUGGGACCCA is 0.598; for GGCCGGCAUGCUCCCAGCCUCCUCGCUGGCGCCGGCUGGGCAACAUUCCGAGGGGUCCGUCCCCUCGGUAAUGGCGAAUGGGACCCA it is 0.111.
The figure for GGCCGGCAUGCUCCCAGCCUCCUCGCUGGCGCCGGCUGGGCAACAUUCCGCGGGGACCGUCCCCUCGGUAAUGGCGAAUGGGACCCA is 0.35; for GGCCGGCAUGAUCCCAGCCUCCUCGCUGGCGCCGGCUGGGCAACAUUCCGAGGGGACCGUCCCCUCGGUAAAGGCGAAUGGGACCCA it is 0.179.
As for GGCCGGCAUGAUCCCAGCCUCCUCGCUGGCGCCGGCUGGGCAACAUUCCGAGGGGACCGUCCCCUCGGUAACGGCGAAUGGGACCCA, the self-cleavage stood at 0.121.
The figure for GGCCGGCAUGAUCCCAGCCUCCUCGCUGGCGCCGGCUGGGCAACAUUCCGAGGGGACCGCCCCCUCGGUAAUGGCGAAUGGGACCCA is 0.43.
The figure for GGCCGGCAUGAUCCCAGCCUCCUCGCUGGCGCCGGCUGGGCAACAUUCCGAGGGGACCGGCCCCUCGGUAAUGGCGAAUGGGACCCA is 0.399; for GGCCGGCAUGAUCCCAGCCUCCUCGCUGGCGCCGGCUGGGCAACAUGCCGAGGGGACCGUCCCCUCGGUAAUGGCGAAUGGGACCCA it is 0.58.
As to GGCCGGCAUGAUCCCAGCCUCCUCGCUGGCGCCGGCUGGGCAACAUCCCGAGGGGACCGUCCCCUCGGUAAUGGCGAAUGGGACCCA, the self-cleavage came to 0.475.
With GGCCGGCAUGCUCCCAGCCUCCUCGCUGGCGCCGGCUGGGCAACAUUCCGAGGGGACCGUCCCCUCGGUAAUGGCGAAUGGGACCCC the figure was 0.607; with GGCCGGCAUGCUCCCAGCCUCCUCGCUGGCGCCGGCUGGGCAACAUUCCGAGGGGACCGUCCCCUCGGUAAUGGCGAAUGGGACCCG, 0.34.
With GGCCGGCAUGCUCCCAGCCUCCUCGCUGGCGCCGGCUGGGCAACAUUCCGAGGGGACCGUCCCCUCGGUAUUGGCGAAUGGGACCCA, the self-cleavage came to 0.252.
GGCCGGCAUGCUCCCAGCCUCCUCGCUGGCGCCGGCUGGGCAACAUUCCGAGGGGACCGUCCCCUCGGUACUGGCGAAUGGGACCCA: the self-cleavage amounted to 0.306.
With GGCCGGCAUGCUCCCAGCCUCCUCGCUGGCGCCGGCUGGGCAACAUUCCGAGGGGACCGUCCCCUCGGUAAUGGCGGAUGGGACCCA the figure was 0.138.
The figure for GGCCGGCAUGCUCCCAGCCUCCUCGCUGGCGCCGGCUGGGCAACAUUCCGAGGGGACCGUCCCCUCGGUAAUGGCGUAUGGGACCCA is 0.0462; for GGCCGGCAUGCUCCCAGCCUCCUCGCUGGCGCCGGCUGGGCAACAUUCCGAGGGGACCGUCCCCUCGGUAAUGGCGAAUGGGACCCA it is 0.314; for GGCCGGCAUGCUCCCAGCCUCCUCGCUGGCGCCGGCUGGGCGACAUUCCGAGGGGACCGUCCCCUCGGUAAUGGCGAAUGGGACCCA it is 0.161.
With GGCCGGCAUGCUCCCAGCCUCCUCGCUGGCGCCGGCUGGGCUACAUUCCGAGGGGACCGUCCCCUCGGUAAUGGCGAAUGGGACCCA the figure was 0.0536.
Consider GGCCGGCAUGCUCCCAGCCUCCUCGCUGGCGCCGGCUGGGCAACCUUCCGAGGGGACCGUCCCCUCGGUAAUGGCGAAUGGGACCCA, for which the self-cleavage turned out to be 0.116.
Turning to GGCCGGCAUGCUCACAGCCUCCUCGCUGGCGCCGGCUGGGCAACAUUCCGAGGGGACCGUCCCCUCGGUAAUGGCGAAUGGGACCCA, the self-cleavage amounted to 0.106.
Regarding GGCCGGCAUGCUCCCAGCCUCCUCGCUGGCGCCGGCUGGGCAACAUUCCGAGGGGACCGUCCCCUCGGUAAUGGCGAAUGGGUCCCA, the self-cleavage amounted to 0.119.
The figure for GGCCGGCAUGCUCCAAGCCUCCUCGCUGGCGCCGGCUGGGCAACAUUCCGAGGGGACCGUCCCCUCGGUAAUGGCGAAUGGGACCCA is 0.0396; for GGCCGGCAUGCUGCCAGCCUCCUCGCUGGCGCCGGCUGGGCAACAUUCCGAGGGGACCGUCCCCUCGGUAAUGGCGAAUGGGACCCA it is 0.0437.
With GGCCGGCAUGCUUCCAGCCUCCUCGCUGGCGCCGGCUGGGCAACAUUCCGAGGGGACCGUCCCCUCGGUAAUGGCGAAUGGGACCCA the figure was 0.0852; with GGCCGGCAUGAUCCCAGCCUCCUCGCUGGCGCCGGCUGGGCAACAAUCCGAGGGGACCGUCCCCUCGGUAAUGGCGAAUGGGACCCA, 0.148.
With GGCCGGCAUGAUCCCAGCCUCCUCGCUGGCGCCGGCUGGGCAACAGUCCGAGGGGACCGUCCCCUCGGUAAUGGCGAAUGGGACCCA the figure was 0.128; with GGCCGGCAUGAUCCCAGCCUCCUCGCUGGCGCCGGCUGGGCAACAUUCCGAGGGGACCGUCCCCUCGGUAAUGGCGAAGGGGACCCA, 0.0923; with GGCCGGCAUGAUCCCAGCCUCCUCGCUGGCGCCGGCUGGGCAACAUUCCGAGGGGACCGUCCCCUCGGUAAUGGCGAAAGGGACCCA, 0.0652.
On to GGCCGGCAUGCUCCCCGCCUCCUCGCUGGCGCCGGCUGGGCAACAUUCCGAGGGGACCGUCCCCUCGGUAAUGGCGAAUGGGACCCA, for which the self-cleavage was 0.95.
On to GGCCGGCAUGAUCCCAGCCUCCUCGCUGGCGCCGGCGGGGCAACAUUCCGAGGGGACCGUCCCCUCGGUAAUGGCGAAUGGGACCCA, for which the self-cleavage stood at 0.142.

(Values after the RNAGym collection of RNA variant scans (doi:10.7554/elife.80360).)
